Source: the supplement of paper PMC10567573
± gives the standard deviation.

Assay: protein stability index of a GFP-peptide fusion (GPS, HEK-293T) (PSI 1-6); higher = more stable
Settings: c terminus: a fixed tail appended
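Further: 24-mer peptide tiles fused after GFP, lentivirally expressed, FACS-sorted into six equal bins by GFP/DsRed ratio, decoded by Illumina sequencing, PSI is the read-weighted mean bin number.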

Row | Sequence | protein stability index (treatment: DMSO) | protein stability index (treatment: MLN4924 1 uM, 8 h)
1 | FLYSHGVPRTLSPHQYHSVHGVGM [TBX5] | 2.31 ± 0.38 | 2 ± 0.24
2 | NATLTQYQLLATHVPTVWAIDQYR [RHOBTB2] | 2.61 ± 0.58 | 2.48 ± 0.31
3 | NFEEMRALLDSLPPPVESELALFQ [KLHL14] | 3.46 ± 0.45 | 3.91 ± 0.28
4 | STSLLTSAGNRTHKARTRPKARKQ [ADAMTSL2] | 4.89 ± 0.35 | 4.92 ± 0.25
5 | YEEEFDYETESETESEIESETDFE [GNAS] | 5.12 ± 0.24 | 5.11 ± 0.16
6 | LQMKLEKLREKERKKEAKRKISSL [FAM50A] | 3.71 ± 0.45 | 3.98 ± 0.53
